Results published in patent publication US11733246B2, “Compositions, imaging, and therapeutic methods targeting folate receptor 1 (FOLR1)” (Indi Molecular, Inc., priority 2020, dated 2023).
Like-named read-outs stand apart in the source and are kept apart here. Blank lines part the entries; values can stand above or below the molecule they belong to. Numbered stars: 1 amine (or outer) side, 2 acyl side, 3 side chain; on linkers, the order of the positions; unused ones are H or OH. Bridge positions count the residues as written; N and C are the ends. Square brackets hold non-standard residues; d marks the D form. Triazole bridges read from a SMILES are 1,4-linked. Side chains are listed from the residue outwards. Peptide text beside a SMILES is read from it. * marks the point of attachment. DOTA = O=C(O)CN1CCN(CC(=O)O)CCN(CC(=O)*)CCN(CC(=O)O)CC1; Pteroyl = Nc1nc2ncc(CNc3ccc(C(=O)*)cc3)nc2c(=O)[nH]1; Biotin = O=C1N[C@H]2[C@H](CS[C@H]2CCCCC(=O)*)N1; PEG10 = NCCOCCOCCOCCOCCOCCOCCOCCOCCOCCOCCC(=O)O; Butanoyl(4-(4-MePh)) = Cc1ccc(CCCC(=O)*)cc1; Lys(N3) = [N-]=[N+]=NCCCC[C@H](N)C(=O)O; γGlu = O=C(O)[C@H](CCC(=O)[*:2])N[*:1]; AEEEA = NCCOCCOCCOCC(=O)O; Pra = C#CC[C@H](N)C(=O)O

How the values were obtained:
FOLR1 = molecular target: T1, FOLR1 (Homo sapiens, UniProt P15328); assay: ELISA assay of FOLR1 binding
T1 construct: His; purchased SinoBiological 11241-H08H
Description: FIG. 5 is a diagram of ELISA assay of FOLR1 binding of heterobiligands.
Nonclinical studies were first conducted with Folate-hshta-PEG10-PEG10-K(Biotin), where Folate-hshta is the targeting heterobiligand, PEG10 is a deca(ethylene glycol) linker, and K(Biotin) is the detection label.

OVCAR3 xenografts = assay: 177Lu FOLR1 radioligand therapy in OVCAR3 xenograft model; assay type: in vivo, mouse; conditions: for body weight change: single dose
Protocol: Water and food were provided ad libitum. […] Tumor growth was monitored by caliper measurements.
OVCAR3 tumor bearing mice were used to study FOLR1-directed radioligand therapy (RLT) for treatment of ovarian cancer. Animals were administered a single dose of heterobiligand (vehicle control) or 111, 37, 18.5, 9.25, or 3.7 MBq [^177Lu]DOTA-labeled heterobiligand. Mice received the dose intravenously (i.v.) via the tail vein. To monitor the effect of the RLT, tumor size measurements were taken twice weekly and body weights were measured.
The engraftment was allowed to expand until palpable tumor sizes ranging in size from 218-384 mm^3 were detected. […] These observed effects were consistant with radiation overdosing. […] The best response was observed using 9.25 MBq Lu-177 Heterobiligand (compound #2809).
Single dose treatments at 18.5 MBq/nmol specific activity. OVCAR3 mouse model was used. 10^7 cell tumors were implanted in the mice one month before administration of ^177Lu-#6305. Five mice each were administered Cold #6305, 9.25 MBq Lu177-#6305, and 14.8 MBq Lu177-#6305, and two mice were administered 29.6 MBq Lu177-#6305. Tumor growth and body weight were then monitored.
Female NSG mice were implanted subcutaneously with OVCAR3 cells. Once tumors reached volumes of 200 mm^3, the animals were treated with 177-Lu 7327. Three treatment arms of 9.25 MBq, 14.8 MBq, and 29.6 MBq were studied.
Female NSG mice were implanted subcutaneously with human OVCAR3 (FOLR+) ovarian cancer cells. Once tumors reached volumes of 200 mm^3, the animals were treated with Indi ^177Lu-7327. One treatment arm of 74 MBq and a control group of 0 MBq were studied (FIGS. 41 and 38A). […] The second dose was administered 21 days following the first dose. Statistically significant differential between treated and control was reached 24 days post-injection (three days following the second dose) for the 74 MBq arm. P values (* for p≤0.05, ** for p≤0.01) were determined by ordinary one-way ANOVA with Tukey's multiple comparisons test.

[1] = Maximum tolerated dose / tolerability study
Protocol: Animals were monitored for signs of toxicity and weighed twice weekly. […] The second and third doses were administered 21 days following the previous dose.
Two separate MTD experiments were undertaken. […] A second experiment interrogated lower doses.
Mouse body weight and behavior were monitored. […] The second and third doses were administered 21 days following the previous dose.

[2] = Gamma counting of tissue radioactivity; assay type: in vivo, mouse; conditions: for kidney radioactivity / liver radioactivity / tumor radioactivity: Day 28 post-injection
Description: 7 days after Lu177-#6305 injection, the 29.6 MBq group lost 20% body weight. These mice were sacrificed. Tissues and plasma were collected for evaluation of radioactivity by gamma counting. The toxicity may have resulted from its accumulation in the kidneys and liver (FIG. 28). At study endpoint (Day 28 post-injection), plasma, tumors, kidneys, lungs, hearts, livers, and muscles from 9.25 MBq and 14.8 MBq treatment groups were collected for evaluation of radioactivity by gamma counting (FIG. 29).

[3] = albumin binder / DOTA tagged biotin-labeled heterobiligands, read-out: EC50
[4] = 29.6 MBq group, Day 7 post-injection

T1 sequence (P15328 25-234): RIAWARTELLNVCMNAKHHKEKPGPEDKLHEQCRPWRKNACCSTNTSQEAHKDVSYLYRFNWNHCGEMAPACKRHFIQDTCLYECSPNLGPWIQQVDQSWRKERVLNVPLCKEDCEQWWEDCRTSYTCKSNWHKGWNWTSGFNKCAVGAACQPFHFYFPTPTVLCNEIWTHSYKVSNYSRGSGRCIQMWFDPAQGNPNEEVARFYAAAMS

EC50 (FOLR1; [3]): 0.098 nM
Structure (SMILES): C[C@H](O)[C@H]1NC(=O)[C@@H](Cc2c[nH]cn2)NC(=O)[C@@H](CO)NC(=O)[C@@H](Cc2c[nH]cn2)NC(=O)[C@@H](NC(=O)CC[C@H](NC(=O)c2ccc(NCc3cnc4nc(N)[nH]c(=O)c4n3)cc2)C(=O)O)Cc2cn(nn2)CCCC[C@@H](C(=O)NCCOCCOCCOCC(=O)N[C@@H](CCCCNC(=O)CN2CCN(CC(=O)O)CCN(CC(=O)O)CCN(CC(=O)O)CC2)C(=O)NCCOCCOCCOCCOCCOCCOCCOCCOCCOCCOCCC(=O)NCCOCCOCCOCCOCCOCCOCCOCCOCCOCCOCCC(=O)N[C@@H](CCCCNC(=O)CCCC[C@@H]2SC[C@@H]3NC(=O)N[C@@H]32)C(N)=O)NC(=O)[C@@H](C)NC1=O [Folate-hshta-DOTA] ({Pteroyl-γGlu}-[Pra][dH][dS][dH][dT][dA][Lys(N3)][AEEEA]K(DOTA)[PEG10][PEG10]K(Biotin)-NH2; triazole 1-7)

EC50 (FOLR1; [3]): 0.11 nM
Structure (SMILES): Cc1ccc(CCCC(=O)NCCCC[C@H](NC(=O)COCCOCCOCCNC(=O)[C@@H]2CCCCn3cc(nn3)C[C@H](NC(=O)CC[C@H](NC(=O)c3ccc(NCc4cnc5nc(N)[nH]c(=O)c5n4)cc3)C(=O)O)C(=O)N[C@H](Cc3c[nH]cn3)C(=O)N[C@H](CO)C(=O)N[C@H](Cc3c[nH]cn3)C(=O)N[C@H]([C@H](C)O)C(=O)N[C@H](C)C(=O)N2)C(=O)NCCOCCOCCOCCOCCOCCOCCOCCOCCOCCOCCC(=O)NCCOCCOCCOCCOCCOCCOCCOCCOCCOCCOCCC(=O)N[C@@H](CCCCNC(=O)CCCC[C@@H]2SC[C@@H]3NC(=O)N[C@@H]32)C(N)=O)cc1 [Folate-hshta-MPBA] ({Pteroyl-γGlu}-[Pra][dH][dS][dH][dT][dA][Lys(N3)][AEEEA]K(Butanoyl(4-(4-MePh)))[PEG10][PEG10]K(Biotin)-NH2; triazole 1-7)

Structure (SMILES): C[C@H](O)[C@H]1NC(=O)[C@@H](Cc2cnc[nH]2)NC(=O)[C@@H](CO)NC(=O)[C@@H](Cc2cnc[nH]2)NC(=O)[C@@H](NC(=O)CC[C@H](NC(=O)c2ccc(NCc3cnc4nc(N)[nH]c(=O)c4n3)cc2)C(=O)O)Cc2cn(nn2)CCCC[C@@H](C(=O)NCC(=O)N[C@@H](Cc2ccccc2)C(=O)N[C@@H](CCCCNC(=O)CN2CCN(CC(=O)O)CCN(CC(=O)O)CCN(CC(=O)O)CC2)C(=O)O)NC(=O)[C@@H](C)NC1=O [Indi ^177Lu-7327, Folate-hshta-G-F-K(^177Lu-DOTA)-OH, metal not drawn] ({Pteroyl-γGlu}-[Pra][dH][dS][dH][dT][dA][Lys(N3)]GFK(DOTA)-OH; triazole 1-7)
loss of body weight (OVCAR3 xenografts; 29.6 MBq, after second dose): 5-10%
body weight (OVCAR3 xenografts; highest dose (29.6 MBq), after second dose): modest loss of body weight
body weights of treated mice (OVCAR3 xenografts; mouse, in vivo): normal body weights (+/−10%)
tolerability of first dose (OVCAR3 xenografts; mouse, in vivo): well tolerated
radioactive dose tolerated, three treatments ([1]; healthy, non-tumor bearing female NSG mice): up to 111 MBq

Structure (SMILES): C[C@H](O)[C@H]1NC(=O)[C@@H](Cc2ccc(O)cc2)NC(=O)[C@@H](CCCNC(=N)N)NC(=O)[C@@H](CCC(=O)O)NC(=O)[C@@H](CC(=O)O)NC(=O)[C@@H](NC(=O)[C@H](CCCCNC(=O)COCCOCCOCCNC(=O)CC[C@H](NC(=O)c2ccc(NCc3cnc4nc(N)[nH]c(=O)c4n3)cc2)C(=O)O)NC(=O)CCOCCOCCOCCOCCOCCOCCOCCOCCOCCOCCNC(=O)CCOCCOCCOCCOCCOCCOCCOCCOCCOCCOCCNC(=O)CCCC[C@@H]2SC[C@@H]3NC(=O)N[C@@H]32)Cc2cn(nn2)CCCC[C@@H](C(N)=O)NC1=O [Lys (PEG3 -Folate)-deryt] ({Biotin-PEG10-PEG10}-K([AEEEA-γGlu-Pteroyl])[Pra][dD][dE][dR][dY][dT][Lys(N3)]-NH2; triazole 2-8)
EC50 (FOLR1; EC50, deryt heterobiligands, ELISA): 0.16 nM

Structure (SMILES): Cc1ccc(CCCC(=O)NCCCC[C@H](NC(=O)[C@@H]2CCCCn3cc(nn3)C[C@H](NC(=O)CC[C@H](NC(=O)c3ccc(NCc4cnc5nc(N)[nH]c(=O)c5n4)cc3)C(=O)O)C(=O)N[C@H](Cc3c[nH]cn3)C(=O)N[C@H](CO)C(=O)N[C@H](Cc3c[nH]cn3)C(=O)N[C@H]([C@H](C)O)C(=O)N[C@H](C)C(=O)N2)C(=O)NCC(=O)N[C@@H](Cc2ccccc2)C(=O)N[C@@H](CCCCNC(=O)CN2CCN(CC(=O)O)CCN(CC(=O)O)CCN(CC(=O)O)CC2)C(=O)O)cc1 [^177Lu-#6305, metal not drawn] ({Pteroyl-γGlu}-[Pra][dH][dS][dH][dT][dA][Lys(N3)]K(Butanoyl(4-(4-MePh)))GFK(DOTA)-OH; triazole 1-7)
body weight change (OVCAR3 xenografts; 9.25 MBq and 14.8 MBq): No significant body weight change
body weight loss (OVCAR3 xenografts; 29.6 MBq, 7 days after injection): 20%
body weight change (OVCAR3 xenografts; 29.6 MBq): substantial body weight decrease
kidney radioactivity ([2]; 9.25 MBq group): 414 CPM/g
liver radioactivity ([2]; 9.25 MBq group): 685 CPM/g
tumor radioactivity ([2]; 9.25 MBq group): 33 CPM/g
liver/kidney ratio ([2]; 14.8 MBq group on Day 28): 1.94
kidney radioactivity ([2]; 14.8 MBq group): 653 CPM/g
liver radioactivity ([2]; 14.8 MBq group): 1,264 CPM/g
tumor radioactivity ([2]; 14.8 MBq group): 60 CPM/g
liver/kidney ratio ([2]; 29.6 MBq group on Day 7): 0.27
radioactivity in the kidney [2, 4]: 394,834 CPM/g
radioactivity in the liver [2, 4]: 107,374 CPM/g
radioactivity in the tumor [2, 4]: 42,674 CPM/g
tissue to tissue ratio at 672 h ([2]; mouse, tumor and kidney, total radioactivity, 14.8 MBq group, Day 28): 0.093
tissue to tissue ratio at 168 h ([2]; mouse, tumor and kidney, total radioactivity, 29.6 MBq group, Day 7): 0.108
body weight ([1]; doses of 29.6, 37, 111 and 185 MBq, first dose): weight loss after the first dose
tolerability of second dose ([1]; second dose 7 days after the first (29.6-185 MBq)): not tolerated
tolerability of second dose ([1]; second dose administered 21 days (14.8-22.2 MBq)): not tolerated
body weight ([1]; single dose of 14.8, 18.5 and 22.2 MBq): only minimal loss in body weight
